The results in this text go back to paper PMC10840721 (Developmental cell, 2022).

Read-outs that look alike come from different tables or passages of the source.

In data set [1] the target is T1, NHR-23;NHR-85 (Caenorhabditis elegans;Caenorhabditis …, UniProt P41828;Q9XUK7 1-588;1-514, |).
T1 sequence 1: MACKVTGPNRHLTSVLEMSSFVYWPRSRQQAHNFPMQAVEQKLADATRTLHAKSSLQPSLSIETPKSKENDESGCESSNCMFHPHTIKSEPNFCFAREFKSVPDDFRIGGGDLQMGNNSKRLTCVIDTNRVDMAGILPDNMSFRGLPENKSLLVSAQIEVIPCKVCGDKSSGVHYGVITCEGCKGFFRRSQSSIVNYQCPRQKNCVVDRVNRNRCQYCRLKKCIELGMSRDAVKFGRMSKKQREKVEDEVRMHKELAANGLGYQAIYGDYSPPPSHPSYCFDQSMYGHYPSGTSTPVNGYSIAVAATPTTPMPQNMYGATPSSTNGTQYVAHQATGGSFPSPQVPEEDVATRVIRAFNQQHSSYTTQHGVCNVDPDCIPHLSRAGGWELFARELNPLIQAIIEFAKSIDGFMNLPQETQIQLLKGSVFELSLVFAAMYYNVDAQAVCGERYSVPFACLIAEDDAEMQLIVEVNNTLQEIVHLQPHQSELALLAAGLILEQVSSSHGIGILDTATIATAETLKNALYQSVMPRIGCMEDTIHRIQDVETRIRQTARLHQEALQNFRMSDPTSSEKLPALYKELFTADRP
T1 sequence 2: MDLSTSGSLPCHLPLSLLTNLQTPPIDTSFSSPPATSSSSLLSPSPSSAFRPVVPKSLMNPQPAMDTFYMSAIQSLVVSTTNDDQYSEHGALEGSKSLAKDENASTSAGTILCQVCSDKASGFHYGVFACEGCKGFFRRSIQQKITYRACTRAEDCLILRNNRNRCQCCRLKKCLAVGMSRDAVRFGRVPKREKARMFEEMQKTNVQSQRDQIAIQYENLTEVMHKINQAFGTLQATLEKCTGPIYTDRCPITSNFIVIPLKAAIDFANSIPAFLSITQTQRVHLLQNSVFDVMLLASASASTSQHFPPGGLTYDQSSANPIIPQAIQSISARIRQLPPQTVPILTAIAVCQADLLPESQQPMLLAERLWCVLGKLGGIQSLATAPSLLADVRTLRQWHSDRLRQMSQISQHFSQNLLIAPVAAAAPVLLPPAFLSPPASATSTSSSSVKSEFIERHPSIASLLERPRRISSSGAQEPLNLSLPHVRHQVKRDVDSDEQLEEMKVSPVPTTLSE
As to the kind of experiment: EMSA.

Data set [2] concerns the target T1, NHR-23;NHR-85. As to the kind of experiment: EMSA. The source holds these as a separate data set.
In data set [3] the target is T1, NHR-23;NHR-85. As to the kind of experiment: EMSA. This is another data set of the same source.
For data set [4], the target named is T2, NHR-23 (recombinant, Strep-SUMO tag cleaved) (C. elegans, UniProt P41828 1-588).
T2 sequence (looked up): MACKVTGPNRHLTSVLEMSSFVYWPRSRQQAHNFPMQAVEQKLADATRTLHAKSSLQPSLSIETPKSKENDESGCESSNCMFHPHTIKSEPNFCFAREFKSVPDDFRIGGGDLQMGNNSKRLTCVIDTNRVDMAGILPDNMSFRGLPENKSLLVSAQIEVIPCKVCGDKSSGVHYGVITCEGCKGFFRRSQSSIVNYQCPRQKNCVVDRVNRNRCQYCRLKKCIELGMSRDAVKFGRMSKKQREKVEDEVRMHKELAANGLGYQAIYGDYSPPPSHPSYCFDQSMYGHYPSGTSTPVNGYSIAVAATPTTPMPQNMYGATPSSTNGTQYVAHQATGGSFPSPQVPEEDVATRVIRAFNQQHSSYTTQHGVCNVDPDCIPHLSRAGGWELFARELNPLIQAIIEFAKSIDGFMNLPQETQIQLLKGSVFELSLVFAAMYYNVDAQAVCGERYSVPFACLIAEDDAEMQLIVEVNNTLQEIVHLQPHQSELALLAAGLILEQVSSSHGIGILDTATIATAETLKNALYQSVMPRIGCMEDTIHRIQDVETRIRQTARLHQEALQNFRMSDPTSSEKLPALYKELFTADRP
The data set can be described thus: MST.

B1: Mut_DR1 (dsDNA)
DNA 1: ACAAATTGACCTGTGTCGGTCAGTA
DNA 2: ACTGACCGACACAGGTCAATTTGT
In the case of B1, in the data set with NHR-23;NHR-85 [1], the binding result is listed as “no binding”.

B2: wtLIN-4_23_85 (PCE direct repeat, 25 bp) (dsDNA)
DNA 1: ACAAATTGAGGTCAGTCGGTCAGTA
DNA 2: TACTGACCGACTGACCTCAATTTGT
As for B2, the binding result in the data set with NHR-23;NHR-85 [2] is on record as “binds”.

B3: Mut_DR2 (dsDNA)
DNA 1: ACAAATTGAGGTCAGTCCCTGTCTA
DNA 2: TAGACAGGGACTGACCTCAATTTGT
Take B3: the binding result with NHR-23;NHR-85 [1] was “no binding”.

B4: Proximal (25 bp) (dsDNA)
DNA 1: CGAAGCGACCGAATGACCCAGTCTC
DNA 2: GAGACTGGGTCATTCGGTCGCTTCG
With B4, the binding result with NHR-23;NHR-85 [3] is reported as “binds”.

B5: Strep2-NHR-85 (natural protein, C. elegans, UniProt Q9XUK7 1-514, looked up)
chain: MDLSTSGSLPCHLPLSLLTNLQTPPIDTSFSSPPATSSSSLLSPSPSSAFRPVVPKSLMNPQPAMDTFYMSAIQSLVVSTTNDDQYSEHGALEGSKSLAKDENASTSAGTILCQVCSDKASGFHYGVFACEGCKGFFRRSIQQKITYRACTRAEDCLILRNNRNRCQCCRLKKCLAVGMSRDAVRFGRVPKREKARMFEEMQKTNVQSQRDQIAIQYENLTEVMHKINQAFGTLQATLEKCTGPIYTDRCPITSNFIVIPLKAAIDFANSIPAFLSITQTQRVHLLQNSVFDVMLLASASASTSQHFPPGGLTYDQSSANPIIPQAIQSISARIRQLPPQTVPILTAIAVCQADLLPESQQPMLLAERLWCVLGKLGGIQSLATAPSLLADVRTLRQWHSDRLRQMSQISQHFSQNLLIAPVAAAAPVLLPPAFLSPPASATSTSSSSVKSEFIERHPSIASLLERPRRISSSGAQEPLNLSLPHVRHQVKRDVDSDEQLEEMKVSPVPTTLSE
modifications: AlexaFluor647 NHS Ester label (in the microscale thermophoresis assay only)
On to B5, for which the dissociation constant Kd in data set [4] was 5.8 nM.
